Paper PMC3688503 (2013)

B1: wild-type MTM1-B10 fusion protein [human] / wild-type MTMR12-GFP protein [human] (parent complex)
chain 1: MASASTSKYNSHSLENESIKRTSRDGVNRDLTEAVPRLPGETLITDKEVIYICPFNGPIKGRVYITNYRLYLRSLETDSSLILDVPLGVISRIEKMGGATSRGENSYGLDITCKDMRNLRFALKQEGHSRRDMFEILTRYAFPLAHSLPLFAFLNEEKFNVDGWTVYNPVEEYRRQGLPNHHWRITFINKCYELCDTYPALLVVPYRASDDDLRRVATFRSRNRIPVLSWIHPENKTVIVRCSQPLVGMSGKRNKDDEKYLDVIRETNKQISKLTIYDARPSVNAVANKATGGGYESDDAYHNAELFFLDIHNIHVMRESLKKVKDIVYPNVEESHWLSSLESTHWLEHIKLVLTGAIQVADKVSSGKSSVLVHCSDGWDRTAQLTSLAMLMLDSFYRSIEGFEILVQKEWISFGHKFASRIGHGDKNHTDADRSPIFLQFIDCVWQMSKQFPTAFEFNEQFLIIILDHLYSCRFGTFLFNCESARERQKVTERTVSLWSLINSNKEKFKNPFYTKEINRVLYPVASMRHLELWVNYYIRWNPRIKQQQPNPVEQRYMELLALRDEYIKRLEELQLANSAKLSDPPTSPSSPSQMMPHVQTHF
chain 2: MLGKGVVGGGGGTKAPKPSFVSYVRPEEIHTNEKEVTEKEVTLHLLPGEQLLCEASTVLKYVQEDSCQHGVYGRLVCTDFKIAFLGDDESALDNDETQFKNKVIGENDITLHCVDQIYGVFDEKKKTLFGQLKKYPEKLIIHCKDLRVFQFCLRYTKEEEVKRIVSGIIHHTQAPKLLKRLFLFSYATAAQNNTVTDPKNHTVMFDTLKDWCWELERTKGNMKYKAVSVNEGYKVCERLPAYFVVPTPLPEENVQRFQGHGIPIWCWSCHNGSALLKMSALPKEQDDGILQIQKSFLDGIYKTIHRPPYEIVKTEDLSSNFLSLQEIQTAYSKFKQLFLIDNSTEFWDTDIKWFSLLESSSWLDIIRRCLKKAIEITECMEAQNMNVLLLEENASDLCCLISSLVQLMMDPHCRTRIGFQSLIQKEWVMGGHCFLDRCNHLRQNDKEEVPVFLLFLDCVWQLVHQHPPAFEFTETYLTVLSDSLYIPIFSTFFFNSPHQKDTNMGREGQDTQSKPLNLLTVWDWSVQFEPKAQTLLKNPLYVEKPKLDKGQRKGMRFKHQRQLSLPLTQSKSSPKRGFFREETDHLIKNLLGKRISKLINSSDELQDNFREFYDSWHSKSTDYHGLLLPHIEGPEIKVWAQRYLRWIPEAQILGGGQVATLSKLLEMMEEVQSLQEKIDERHHSQQAPQAEAPCLLRNSARLSSLFPFALLQRHSSKPVLPTSGWKALGDEDDLAKREDEFVDLGDV

Variants of: B1
Assay: co-immunoprecipitation (anti-B10 IP, western blot quantification); overexpressed in Cos1 cells; IP with anti-B10 tag antibody; parent: 1; read off a plot
Variant chain 1 R184G has a response of roughly 0.05 AU. With chain 1 C375S the response was roughly 0.92 AU. For chain 1 R69C, the response was roughly 0.05 AU. chain 1 R421Q showed a response of roughly 0.92 AU. Work on chain 1 R241C yielded a response of roughly 1 AU. In the case of chain 1 P205L, the response is reported as roughly 0.07 AU. In the case of chain 1 V49F, the response is reported as roughly 0.05 AU.
